According to the supplement of paper PMC9112550, “Optimization of the antimicrobial peptide Bac7 by deep mutational scanning” (BMC Biology, 2022):

System: Escherichia coli TOP10
Experiment: shrunken log2 fold change of peptide-encoding DNA abundance (4.5 h post-induction vs induction); higher = less antimicrobial activity (less host growth inhibition)
Conditions: time post-induction: 4.5 h; library: site-saturation at positions 5, 18, 19, 20
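Further: peptides expressed intracellularly from a pBAD plasmid library in pooled LB shake-flask culture, induced with 0.3% L-arabinose, DNA abundance read by NGS, three biological replicates, DESeq2 with apeglm shrinkage.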

Sequence	shrunken log2 fold change
RRIRPRPPRLPRPRPRPREKPRP	0.489
RRIRDRPPRLPRPRPRPNPSPRP	0.13
RRIRSRPPRLPRPRPRPYFHPRP	-0.853
RRIRTRPPRLPRPRPRPADTPRP	-0.215
RRIRERPPRLPRPRPRPPMHPRP	-0.171
RRIRDRPPRLPRPRPRPQLCPRP	0.365
RRIRFRPPRLPRPRPRPLYCPRP	-0.937
RRIRRRPPRLPRPRPRPVHNPRP	0.0641
RRIRFRPPRLPRPRPRPHCHPRP	-0.59
RRIRVRPPRLPRPRPRPGEAPRP	0.474
RRIRERPPRLPRPRPRPEFGPRP	-0.171
RRIRNRPPRLPRPRPRPLQNPRP	0.176
RRIRERPPRLPRPRPRPLDEPRP	-0.396
RRIRSRPPRLPRPRPRPAPWPRP	0.528
RRIRQRPPRLPRPRPRPFHHPRP	-0.0143
RRIRGRPPRLPRPRPRPLDIPRP	-0.0476
RRIRERPPRLPRPRPRPRNIPRP	-0.095
RRIRVRPPRLPRPRPRPYVKPRP	-0.354
RRIRVRPPRLPRPRPRPFLPPRP	-0.198
RRIRGRPPRLPRPRPRPSHHPRP	-0.286
RRIRSRPPRLPRPRPRPGRCPRP	0.247
RRIRHRPPRLPRPRPRPDKFPRP	-0.16
RRIRKRPPRLPRPRPRPDTVPRP	0.00611
RRIRRRPPRLPRPRPRPEQDPRP	0.727
RRIRTRPPRLPRPRPRPGEDPRP	0.109

Sequence	shrunken log2 fold change
RRIRSRPPRLPRPRPRPMRGPRP	0.944
RRIRARPPRLPRPRPRPRGNPRP	0.494
RRIRGRPPRLPRPRPRPLKRPRP	0.216
RRIRGRPPRLPRPRPRPMHTPRP	1.25
RRIRCRPPRLPRPRPRPHQCPRP	-0.24
RRIRTRPPRLPRPRPRPIDHPRP	-0.263
RRIRNRPPRLPRPRPRPRFPPRP	-0.365
RRIRHRPPRLPRPRPRPDAQPRP	0.0391
RRIRKRPPRLPRPRPRPRNRPRP	-0.139
RRIRDRPPRLPRPRPRPPIHPRP	-0.487
RRIRVRPPRLPRPRPRPIAFPRP	-0.207
RRIRTRPPRLPRPRPRPERFPRP	0.0107
RRIRHRPPRLPRPRPRPRGKPRP	-0.241
RRIRVRPPRLPRPRPRPPRVPRP	0.305
RRIRNRPPRLPRPRPRPIELPRP	-0.232
RRIRLRPPRLPRPRPRPFMEPRP	-0.35
RRIRARPPRLPRPRPRPVDRPRP	0.193
RRIRWRPPRLPRPRPRPGIQPRP	0.468
RRIRSRPPRLPRPRPRPFMYPRP	-0.513
RRIRKRPPRLPRPRPRPGYVPRP	-0.0738
RRIRLRPPRLPRPRPRPSQQPRP	-0.0225
RRIRHRPPRLPRPRPRPRMGPRP	-0.00555
RRIRMRPPRLPRPRPRPKMPPRP	0.493
RRIRIRPPRLPRPRPRPLPHPRP	-0.0305
RRIRGRPPRLPRPRPRPDQKPRP	0.0127

Sequence	shrunken log2 fold change
RRIRCRPPRLPRPRPRPLMRPRP	0.715
RRIRMRPPRLPRPRPRPGDKPRP	0.9
RRIRWRPPRLPRPRPRPTIRPRP	-0.343
RRIRIRPPRLPRPRPRPDGCPRP	-0.229
RRIRPRPPRLPRPRPRPNTEPRP	-0.124
RRIRFRPPRLPRPRPRPRQAPRP	0.128
RRIRRRPPRLPRPRPRPEDEPRP	-0.0165
RRIRVRPPRLPRPRPRPDKWPRP	-0.151
RRIRCRPPRLPRPRPRPSCDPRP	-0.0533
RRIRCRPPRLPRPRPRPMIQPRP	-0.417
RRIRKRPPRLPRPRPRPCYEPRP	-0.311
RRIRGRPPRLPRPRPRPMYLPRP	0.0702
RRIRLRPPRLPRPRPRPPLWPRP	0.447
RRIRTRPPRLPRPRPRPRISPRP	-0.106
RRIRCRPPRLPRPRPRPQPWPRP	0.125
RRIRNRPPRLPRPRPRPMASPRP	-0.0269
RRIRTRPPRLPRPRPRPDGPPRP	0.126
RRIRYRPPRLPRPRPRPDRAPRP	-0.0598
RRIRYRPPRLPRPRPRPRIGPRP	-0.471
RRIRIRPPRLPRPRPRPQQPPRP	0.349
RRIRGRPPRLPRPRPRPNCGPRP	0.0147
RRIRIRPPRLPRPRPRPWVWPRP	0.414
RRIRIRPPRLPRPRPRPIHQPRP	-1.14
RRIRERPPRLPRPRPRPDQSPRP	-0.336
RRIRDRPPRLPRPRPRPYAYPRP	0.0345

Sequence	shrunken log2 fold change
RRIRGRPPRLPRPRPRPATSPRP	0.914
RRIRTRPPRLPRPRPRPQALPRP	0.231
RRIRSRPPRLPRPRPRPKEVPRP	-0.00238
RRIRTRPPRLPRPRPRPGWTPRP	0.24
RRIRQRPPRLPRPRPRPVHDPRP	0.0147
RRIRLRPPRLPRPRPRPFHWPRP	-0.000687
RRIRHRPPRLPRPRPRPWVGPRP	0.0323
RRIRNRPPRLPRPRPRPRVSPRP	0.0988
RRIRVRPPRLPRPRPRPDFAPRP	0.147
RRIRIRPPRLPRPRPRPPASPRP	0.276
RRIRLRPPRLPRPRPRPDPVPRP	-0.0275
RRIRARPPRLPRPRPRPDWKPRP	-0.108
RRIRFRPPRLPRPRPRPNTWPRP	-0.277
RRIRCRPPRLPRPRPRPGNAPRP	0.185
RRIRSRPPRLPRPRPRPSQNPRP	-0.321
RRIRVRPPRLPRPRPRPHYGPRP	-0.0301
RRIRGRPPRLPRPRPRPMQSPRP	0.47
RRIRHRPPRLPRPRPRPPPAPRP	1.07
RRIRNRPPRLPRPRPRPYTYPRP	-0.68
RRIRFRPPRLPRPRPRPVELPRP	-0.00737
RRIRARPPRLPRPRPRPDNLPRP	-0.0846
RRIRYRPPRLPRPRPRPKLKPRP	-0.0928
RRIRLRPPRLPRPRPRPLCAPRP	0.11
RRIRNRPPRLPRPRPRPEPKPRP	0.0124
RRIRYRPPRLPRPRPRPPFQPRP	-0.22

Sequence	shrunken log2 fold change
RRIRRRPPRLPRPRPRPYFDPRP	-0.823
RRIRYRPPRLPRPRPRPQQFPRP	-0.397
RRIRSRPPRLPRPRPRPCPDPRP	-0.388
RRIRMRPPRLPRPRPRPWVWPRP	0.169
RRIRTRPPRLPRPRPRPTPIPRP	0.139
RRIRRRPPRLPRPRPRPHILPRP	-0.68
RRIRFRPPRLPRPRPRPWAPPRP	-0.013
RRIRARPPRLPRPRPRPFICPRP	-0.1
RRIRYRPPRLPRPRPRPYQMPRP	-0.344
RRIRLRPPRLPRPRPRPHFCPRP	0.0717
RRIRYRPPRLPRPRPRPNIMPRP	-1.42
RRIRARPPRLPRPRPRPYVSPRP	-0.0383
RRIRRRPPRLPRPRPRPHYYPRP	-0.0297
RRIRCRPPRLPRPRPRPIFFPRP	-0.0793
RRIRRRPPRLPRPRPRPHTRPRP	0.145
RRIRHRPPRLPRPRPRPSDAPRP	-0.293
RRIRWRPPRLPRPRPRPIICPRP	-0.523
RRIRNRPPRLPRPRPRPDAPPRP	0.185
RRIRKRPPRLPRPRPRPQFFPRP	-0.493
RRIRRRPPRLPRPRPRPDDVPRP	0.0443
RRIRMRPPRLPRPRPRPHACPRP	-0.0695
RRIRNRPPRLPRPRPRPESPPRP	0.0142
RRIRARPPRLPRPRPRPCIKPRP	0.126
RRIRDRPPRLPRPRPRPFWQPRP	0.0546
RRIRYRPPRLPRPRPRPMIAPRP	-0.188

Sequence	shrunken log2 fold change
RRIRFRPPRLPRPRPRPWPQPRP	0.127
RRIRYRPPRLPRPRPRPPNFPRP	0.0401
RRIRHRPPRLPRPRPRPRPYPRP	0.0624
RRIRFRPPRLPRPRPRPNCNPRP	-0.469
RRIRDRPPRLPRPRPRPHCYPRP	-0.106
RRIRPRPPRLPRPRPRPRVVPRP	0.341
RRIRNRPPRLPRPRPRPWCQPRP	-0.0618
RRIRFRPPRLPRPRPRPEGYPRP	0.0525
RRIRHRPPRLPRPRPRPFFTPRP	-0.231
RRIRSRPPRLPRPRPRPCDWPRP	0.0154
RRIRERPPRLPRPRPRPIQEPRP	-0.0167
RRIRYRPPRLPRPRPRPHCIPRP	-0.0129
RRIRARPPRLPRPRPRPCMEPRP	0.0522
RRIRPRPPRLPRPRPRPNSMPRP	-0.251
RRIRERPPRLPRPRPRPEHGPRP	0.174
RRIRNRPPRLPRPRPRPSQSPRP	-0.169
RRIRCRPPRLPRPRPRPEQCPRP	0.237
RRIRMRPPRLPRPRPRPGPVPRP	1.14
RRIRLRPPRLPRPRPRPFDQPRP	0.0721
RRIRMRPPRLPRPRPRPCSTPRP	0.477
RRIRQRPPRLPRPRPRPIGFPRP	-0.0702
RRIRQRPPRLPRPRPRPATSPRP	0.0218
RRIRWRPPRLPRPRPRPDWPPRP	0.332
RRIRWRPPRLPRPRPRPCKKPRP	0.0155
RRIRCRPPRLPRPRPRPDRSPRP	0.208
